From patent US11549134B2, “Modified amadoriase and method for producing the same, agent for improving surfactant resistance of amadoriase and composition for measuring HbA1c using the same” (Kikkoman Corporation, priority 2013, dated 2023)

Experiments:
Format in all cases: biochemical
[1] = Surfactant resistance (residual activity) of CcFX variants, 0.01% CTAC; conditions: 30°C, 5 minutes, 20 mM potassium phosphate buffer (pH 7.0), crude enzyme, Table 1-2
Method: (§1) An amadoriase crude enzyme solution or an amadoriase purified sample is diluted with a 30 mM MES/21 mM Tris buffer solution (pH6.5) so as to have a concentration of about 1.0 U/ml. To this, CTAC (for example, manufactured by Tokyo Kasei Kogyo Co., Ltd.) is added so as to obtain a final concentration 0.01% (w/v) or 0.04%. The resultant mixture is heated at 30° C. for 5 minutes. After heating, the mixture is diluted double with a 10 mM phosphate buffer (pH7.0) containing 0.15% BSA to prepare a sample. The enzyme activities of the sample before and after a surfactant treatment are measured by the method described in Section B above. […] In this manner, surfactant resistance is evaluated.
Using a recombinant plasmid containing CcFX gene (SEQ ID NO: 55) as a starting plasmid, various variants were produced as in the procedures described in (1) and (2) above in Escherichia coli strain JM109 (pKK223-3-CcFX) having the plasmid. […] Subsequently, the surfactant resistance of the modified amadoriases was evaluated according to the measurement method for surfactant resistance described in (4) although under surfactant treatment conditions in which the amadoriases were each diluted in a 20 mM potassium phosphate buffer solution (pH 7.0) and mixed with 0.01% CTAC. […]

[2] = Surfactant resistance (residual activity), 0.04% TTAC; conditions: 20 mM potassium phosphate buffer (pH 7.0)
Method: as §1
Tetradecyltrimethylammonium chloride (hereinafter indicated with “TTAC”) was used in place of the surfactant CTAC used in Example 2 to evaluate the stability of CFP-D. The surfactant resistance of various modified amadoriases was evaluated in accordance with a measurement method for surfactant resistance according to Example 1, although under surfactant treatment conditions in which the amadoriases were each diluted in a 20 mM potassium phosphate buffer solution (pH 7.0) and mixed with 0.04% TTAC. In this respect, it was confirmed that when the warmed sample was again measured for activity 30 minutes after 2-fold dilution in a BSA solution, there was no change in the activity value.

[3] = Surfactant resistance (residual activity), 0.04% SDS; conditions: 30 mM MES/21 mM Tris buffer (pH 6.5)
Method: as §1
The stability of CFP-D was evaluated using sodium dodecyl sulfate (hereinafter indicated with “SDS”) in place of the surfactant CTAC used in Example 2. The surfactant resistance of the modified amadoriases was evaluated in accordance with a measurement method for surfactant resistance according to Example 1 although under surfactant treatment conditions in which the amadoriases were each diluted in a 30 mM MES/21 mM Tris buffer solution (pH 6.5) and mixed with 0.04% SDS. In this respect, it was confirmed that when the warmed sample was again measured for activity 30 minutes after 2-fold dilution in a BSA solution, there was no change in the activity value.

[4] = Surfactant resistance (residual activity) of CFP-D multiple variants, 0.04% CTAC; conditions: 30°C, 5 minutes, crude enzyme
Method: An amadoriase crude enzyme solution or an amadoriase purified sample is diluted with a 30 mM MES/21 mM Tris buffer solution (pH6.5) so as to have a concentration of about 1.0 U/ml. To this, CTAC (for example, manufactured by Tokyo Kasei Kogyo Co., Ltd.) is added so as to obtain a final concentration 0.01% (w/v) or 0.04%. The resultant mixture is heated at 30° C. for 5 minutes. After heating, the mixture is diluted double with a 10 mM phosphate buffer (pH7.0) containing 0.15% BSA to prepare a sample. The enzyme activities of the sample before and after a surfactant treatment are measured by the method described in Section B above. The ratio of activity of the sample after the surfactant treatment relative to the activity of the sample before the surfactant treatment (regarded as 100), i.e., the residual activity (%), is obtained. In this manner, surfactant resistance is evaluated. […]

B1: CcFX: ketoamine oxidase derived from Curvularia clavata, SEQ ID NO: 37 (protein, listed as Curvularia clavata)
chain: MAPSRANTSVIVVGGGGTIGSSTALHLVRSGYTPSNITVLDTYPIPSAQSAGNDLNKIMGIRLRNKVDLQLSLEARQMWREDDLFKEYFHNTGRLDCAHGEEGLADLRQAYQALLDANAGLEETTEWLDSEDEILKKMPLLDREQIKGWKAVYSQDGGWLAAAKAINAIGEYLRAQGVKFGFGGAGSFKQPLLAEGVCIGVETVDGTRYYADKVVLAAGAWSPVLVDLEDQCVSKAWVYAHIQLTPEEAAEYKNVPVVYNGDVGFFFEPDEHGVIKVCDEFPGFTRFKQHQPYGAKAPKRISVPRSAAKHPTDTYPDASEKSIRKAIATFLPKFTEKELFNRHLCWCTDTADAALLMCEHPEWKNFVLATGDSGHTFKLLPNIGKHVVELLEGTLAEDLAHAWRWRPGTGDALKSRRAAPAKDLADMPGWKHDDVVKSKL
- Residual Activity(%) [1]: 27.4%

B2: CFP-D: amadoriase derived from the genus Coniochaeta with E98A, F43Y, G184D, deletion of 3 carboxy-terminal amino acid residues; SEQ ID NO: 3 (protein, listed as Coniochaeta sp.)
chain: MTSNRADTRVIVVGGGGTIGSSTALHLVRSGYAPANITVLDTYEIPSAQSAGHDLNKIMGIRLRNKVDLQMSLEARQMWKEDELFQPFFHNTGRMDCAHTPEGIEDLKKQYQALHDAGAGLEKTHAWLDNEDEILSKMPLLQRDQIQGWKAIWSQDGGWLAAAKAINAIGQFLKERGVKFGFGDAGSFKQPLFDDEGTTCIGVETADGTKYYADKVVLAAGAWSPTLVDLEDQCCSKAWVYAHIQLTPEEAAEYKGVPVVYNGEFGFFFEPDEFGVIKVCDEFPGFSRFKEHQPYGAPSPKRISVPRSHAKHPTDTYPDASEVSIKKAIATFLPRFQDKELFNRALCWCTDTADAALLMCEHPKWKNFILATGDSGHSFKILPNVGKYVVELIEGRLPEEMAYQWRWRPGGDALKSRRAAPPKDLADMPGWKHD
modifications: 3 C-terminal residues deleted
- Residual Activity(%) [2]: 29.2%
- Residual Activity(%) [3]: 11.3%
- Residual Activity(%) [4]: 12.7%
